Assay results reported in US20240181022A1, “AMURINS LYSINS, AND LYSIN-ANTIMICROBIAL PEPTIDE (AMP) CONSTRUCTS ACTIVE AGAINST GRAM-NEGATIVE BACTERIA” (priority 2021, published 2024).
Like-named read-outs stand apart in the source and are kept apart here.

Assays:
[1] = test system: A. dolens; type: cell-based, Achromobacter dolens; details: A. dolens (15); 2-hour treatment
Protocol: (§1) The MBEC (after 2-hour treatments) was determined as described in Jones and Wozniak, PsI Produced by Mucoid Pseudomonas aeruginosa Contributes to the Establishment of Biofilms and Immune Evasion, Am. Soc. Microbiol. 2017, 8(3):e00864-17. Meropenem and tobramycin were included as controls and were both poorly active, with MBEC90 values of >256 μg/mL (data not shown).

[2] = test system: P. aeruginosa
[3] = test system: P. aeruginosa; assay: Time-kill assay in cystic fibrosis patient sputum, P. aeruginosa; type: cell-based, Pseudomonas aeruginosa
Description: (§2) Sputum from 5 cystic fibrosis patients was pooled. The resulting mixture was not filtered, as it was very dense and not amenable to sterilization by filtration. Sputum is known to be a complex mixture of DNA, carbohydrates, and lipids ([…], 2016). As used herein, the term “sputum” refers to the mucus present in the respiratory tract of an animal, such as a human. Sputum may increase in thickness due to the irritation or infection, including bacterial infection, and in some instances, may be expelled by the animal while coughing. In certain instances, cystic fibrosis may be characterized by the presence of a thick, sticky mucus or sputum present in the lungs of cystic fibrosis patients. The activity of GN370, AM1, AM2, AM3, and meropenem was determined in the sputum using a time-kill assay format as disclosed in Zhang et al., Antimicrobial peptide therapeutics for cystic fibrosis, Antimicrobial Agents Chemother. 2005; 49(7):2921-2927. […] Untreated controls were included in addition to pretreatment plating (t=0) for a baseline CFU determination. Activity was also determined in the absence of sputum for comparison to activity observed in the presence of sputum.

[4] = test system: A. ruhlandii; type: cell-based, Achromobacter ruhlandii; details: A. ruhlandii (15); 2-hour treatment
Protocol: as §1

[5] = test system: B. gladioli; assay: MIC by broth microdilution against B. gladioli; type: cell-based, Burkholderia gladioli; details: B. gladioli isolates
Protocol: (§3) MIC values were determined using a modification of the standard broth microdilution reference method defined by the Clinical and Laboratory Standards Institute (CLSI), CLSL. 2015. Methods for Dilution Antimicrobial Susceptibility Tests for Bacteria That Grow Aerobically; Approved Standard-10th Edition. Clinical and Laboratory Standards Institute, Wayne, PA. The modification was based on the replacement of Mueller Hinton Broth with either CAA media (with and without NaCl) or CAA supplemented with 2.5% human serum. MIC is the minimum concentration of peptide sufficient to suppress at least 80% of the bacterial growth compared to control.
(§4) Based on these nine most prevalent strains, direct lytic agents, including GN370, AM1, AM2, and AM3, were evaluated against various isolates from each of the 9 strains. MICs and MBECs (Example 3) were determined, and a sputum inhibition test was conducted, as described below in Example 5.
(§5) The MICs for were determined as described below using the broth microdilution method for meropenem, GN370, AM1, AM2, and AM3. The results are shown below in Tables 8-12.

[6] = test system: S. maltophilia; assay: Time-kill assay in cystic fibrosis patient sputum, S. maltophilia; type: cell-based, Stenotrophomonas maltophilia
Description: as §2

[7] = test system: B. gladioli; type: cell-based, Burkholderia gladioli; details: B. gladioli (15); 2-hour treatment
Protocol: as §1

[8] = test system: P. aeruginosa; remark: listed apart in the source
[9] = test system: P. aeruginosa; assay: Serial passage resistance development study, P. aeruginosa; type: cell-based, Pseudomonas aeruginosa
[10] = test system: S. maltophilia; assay: Serial passage resistance development study, S. maltophilia; type: cell-based, Stenotrophomonas maltophilia; details: S. maltophilia, day 28, triplicate
[11] = test system: A. dolens; assay: MIC by broth microdilution against A. dolens; type: cell-based, Achromobacter dolens; details: A. dolens isolates
Protocol: as §3, §4, §5

[12] = P. aeruginosa (28), 2-hour treatment
[13] = MDR P. aeruginosa isolates (n = 13)
[14] = Pseudomonas aeruginosa, AR Bank, N 67
[15] = Pseudomonas aeruginosa, Weill Cornell, N 55
[16] = Pseudomonas aeruginosa, all isolates, N 122
[17] = carbapenem-resistant P. aeruginosa isolates (n = 12)
[18] = mucoid P. aeruginosa isolates (n = 11)
[19] = α-hemolytic P. aeruginosa isolates (n = 13)

B1: GN370: lysin-AMP construct, SEQ ID NO: 149: MIDR, FIRL and NPTH moieties N-terminal to GN202 lysin (protein)
chain: MIDRFIRLNPTHGPRRPRRPGRRAPVRTSQRGIDLIKSFEGLRLSAYQDSVGVWTIGYGTTRGVTRYMTITVEQAERMLSNDIQRFEPELDRLAKVPLNQNQWDALMSFVYNLGAANLASSTLLDLLNKGDYQGAADQFPHWVNAGGKRLDGLVKRRAAERALFLEPLS
modifications: GN370 lysin
For B1, the MBEC50 [1] was 32 µg/mL, the MBEC90 [1] was 128 µg/mL and the “MBEC Range” value [1] was 4 to 128 µg/mL. The “antibiofilm activity (MBEC) against P. aeruginosa” value ([2]; 2-hour treatments) was “highly active”, the MBEC50 ([2]; MDR and XDR P. aeruginosa (9)) was 2 µg/mL and the MBEC90 ([2]; MDR and XDR P. aeruginosa (9)) was 4 µg/mL. The “MBEC Range” value ([2]; MDR and XDR P. aeruginosa (9)) was 1 to 4 µg/mL, the “Number of isolates at MBEC 1 μg/mL” value ([2]; MDR and XDR P. aeruginosa (9)) was 4 and the “Number of isolates at MBEC 2 μg/mL” value ([2]; MDR and XDR P. aeruginosa (9)) was 4. The “Number of isolates at MBEC 4 μg/mL” value ([2]; MDR and XDR P. aeruginosa (9)) was 1, the MBEC50 [2, 12] was 1 µg/mL and the MBEC90 [2, 12] was 2 µg/mL. For the same molecule, the “MBEC Range” value [2, 12] was 0.064-4 ^ μg/mL, the “effect of sputum on antibacterial activity” value ([3]; 10% CF sputum vs no sputum) was “not inhibited” and the “Log10 CFU/mL of sputum” value ([3]; absence of sputum, 1 hr) was 2.3 Log10 CFU/mL of sputum. For the same molecule, the “Log10 CFU/mL of sputum” value ([3]; absence of sputum, 3 hr) was 2.3 Log10 CFU/mL of sputum, the “Log10 CFU/mL of sputum” value ([3]; absence of sputum, 24 hr) was 2.3 Log10 CFU/mL of sputum and the “Log10 CFU/mL of sputum” value ([3]; presence of 10% sputum, 1 hr) was 3.9 Log10 CFU/mL of sputum. The “Log10 CFU/mL of sputum” value ([3]; presence of 10% sputum, 3 hr) was 3.6 Log10 CFU/mL of sputum, the “Log10 CFU/mL of sputum” value ([3]; presence of 10% sputum, 24 hr) was 2.3 Log10 CFU/mL of sputum and the “CFU reduction by 3 hours” value ([3]; time-kill) was 1.5 log10. The “CFU reduction by 24 hours” value ([3]; time-kill) was > 3 log10, the MBEC50 [4] was 4 µg/mL and the MBEC90 [4] was 64 µg/mL. The “MBEC Range” value [4] was 4 to 64 µg/mL, the MIC50 [5] was > 32 µg/mL and the MIC90 [5] was > 32 µg/mL. For the same molecule, the “effect of sputum on antibacterial activity” value ([6]; 10% CF sputum vs no sputum) was “none of GN370, AM1, AM2, and AM3 was inhibited”, the “Log10 CFU/mL of sputum” value ([6]; absence of sputum, 1 hr) was 2.3 Log10 CFU/mL of sputum and the “Log10 CFU/mL of sputum” value ([6]; absence of sputum, 3 hr) was 2.3 Log10 CFU/mL of sputum. For the same molecule, the “Log10 CFU/mL of sputum” value ([6]; absence of sputum, 24 hr) was 2.3 Log10 CFU/mL of sputum, the “Log10 CFU/mL of sputum” value ([6]; presence of 10% sputum, 1 hr) was 3.48 Log10 CFU/mL of sputum and the “Log10 CFU/mL of sputum” value ([6]; presence of 10% sputum, 3 hr) was 2.3 Log10 CFU/mL of sputum. The “Log10 CFU/mL of sputum” value ([6]; presence of 10% sputum, 24 hr) was 2.3 Log10 CFU/mL of sputum, the “CFU reduction by 3 hours” value ([6]; time-kill) was ~2 log10 and the “killing by 24 hours” value ([6]; time-kill) was “complete killing”. The MBEC50 [7] was 256 µg/mL, the MIC50 [8, 13] was 0.125 µg/mL and the MIC90 [8, 13] was 0.5 µg/mL. For the same molecule, the “MIC Range” value ([8]; MDR P. aeruginosa isolates (n = 13), in µg/mL) was 0.0625-0.5, the MIC ([8]; P. aeruginosa ATCC 27853 (head of Table 19)) was 1 µg/mL and the MIC ([8]; P. aeruginosa PA25) was “PA25 (MIC = 2 μg/mL)”. The MIC90 ([8]; P. aeruginosa clinical and resistant isolates) was 2 µg/mL, the MIC50 ([8]; P. aeruginosa isolates) was 0.25 µg/mL and the MIC90 ([8]; P. aeruginosa isolates) was 0.5 µg/mL. For the same molecule, the “MIC Range” value ([8]; P. aeruginosa isolates, in µg/mL) was 0.06-1, the MIC ([8]; P. aeruginosa test organism of the sputum time-kill assay) was “(MIC = 0.5)” and the MIC50 [8, 14] was 1 µg/mL. The MIC90 [8, 14] was 2 µg/mL, the “MIC Range” value [8, 14] was 0.25 to 2 µg/mL and the MIC50 [8, 15] was 1 µg/mL. The MIC90 [8, 15] was 2 µg/mL, the “MIC Range” value [8, 15] was 0.25 to 2 µg/mL and the MIC50 [8, 16] was 1 µg/mL. For the same molecule, the MIC90 [8, 16] was 2 µg/mL, the “MIC Range” value [8, 16] was 0.25 to 2 µg/mL and the MIC ([8]; XDR P. aeruginosa strain AR-769) was 2 µg/mL. For the same molecule, the MIC ([8]; […], before serial passage) was 1 µg/mL, the “activity (MIC) against P. aeruginosa isolates” value ([8]; all tested isolates, Tables 8-12) was “highly active” and the “GN370 MIC50” value [8, 17] was 0.25 µg/mL. For the same molecule, the “GN370 MIC90” value [8, 17] was 0.5 µg/mL, the “GN370 MIC Range” value ([8]; carbapenem-resistant P. aeruginosa isolates (n = 12), in µg/mL) was 0.0625-1 and the MIC50 [8, 18] was 0.25 µg/mL. For the same molecule, the MIC90 [8, 18] was 1 µg/mL, the “MIC Range” value ([8]; mucoid P. aeruginosa isolates (n = 11), in µg/mL) was 0.0625-1 and the MIC50 [8, 19] was 0.25 µg/mL. For the same molecule, the MIC90 [8, 19] was 1 µg/mL, the “MIC Range” value ([8]; α-hemolytic P. aeruginosa isolates (n = 13), in µg/mL) was 0.0625-1 and the “change in MIC over 28-day serial passage” value ([9]; P. aeruginosa (PA453)) was “No change”. For the same molecule, the MIC ([9]; P. aeruginosa PA453, target organism of serial passage study) was 0.125 µg/mL, the “change in MIC over serial passage” value ([9]; P. aeruginosa strain CFS 1292, Day 28) was “no significant changes” and the “change in MIC over serial passage” value [10] was “no increase in MIC”. For the same molecule, the MIC50 [11] was 32 µg/mL and the MIC90 [11] was > 32 µg/mL.
